Assay results taken from PMC11154709, “4S-fluorination of ProB29 in insulin lispro slows fibril formation” (The Journal of Biological Chemistry, 2024).
pKd: −log10 of the molar value. Entries after “also recorded” stand apart in the source; their conditions may differ.

How the values were obtained:
[1] = Analytical ultracentrifugation, velocity sedimentation: hydrodynamic parameters; type: physicochemical; details: 140-206 µM in 100 mM phosphate buffer, pH 8.0, 60,000 RPM, 20 °C, brackets 95% confidence interval
Protocol: Lispro variants (140–206 μM in 100 mM phosphate buffer, pH 8.0) were analyzed by velocity sedimentation at the Canadian Center for Hydrodynamics at the University of Lethbridge using absorbance optics. All samples were measured at 60,000 RPM and 20 °C. Data were analyzed with UltraScan III version 4.0 release 6606 ([38]). Velocity data were initially fitted with the two-dimensional spectrum analysis ([39]) to determine meniscus position and time- and radially-invariant noise, and to generate molecular weight distributions. Two-dimensional spectrum analysis results were refined using the genetic algorithm approach ([40]). Sedimentation and diffusion coefficients derived from the genetic algorithm analysis were transformed to molar mass distributions, assuming a partial specific volume of 0.7248 ml/g for all lispro variants. The enhanced van Holde-Weischet analysis ([41]) was used to determine diffusion-corrected sedimentation coefficient distributions. For the Kd analysis, AUC data were fitted with a discrete model genetic algorithm approach ([29]), assuming the known molar mass of the monomer and floating the Kd, koff, total concentration, partial specific volumes, and frictional ratios as reported in Table S3. […]
Analytical ultracentrifugation:
Lispro variants were formulated at 140 -206 µM in 100 mM phosphate buffer, pH 8.0. Velocity sedimentation experiments were performed at the Canadian Center for Hydrodynamics at the University of Lethbridge using absorbance optics. High concentrations sample s were measured at 237 nm, intermediate concentration samples at 232 nm, and low concentration samples at 225 nm. All samples were measured at 60,000 RPM and 20°C in standard Beckman Coulter cell […]
housings fitted with 0.3 cm epon-charcoal centerpieces for the high concentration samples, and 1.2 cm epon-charcoal centerpieces for the intermediate and low concentration samples. All cells were fitted with sapphire windows. Data were analyzed with UltraScan III version 4.0 release 6606. (38) Velocity data were initially fitted with the two -dimensional spectrum analysis (39) to determine meniscus position and time - and radially-invariant noise, and to generate molecular weight distributions. 2DSA results were refined using the genetic algorithm (GA) approach. (40) Sedimentation and diffusion coefficients derived from the GA analysis were transformed to molar mass distributions (see Figure S2), assuming a partial specific volume of 0.7248 ml/g for all lispro variants. The enhanced van Holde -Weischet analysis (41) was used to determine diffusion - corrected sedimentation coefficient distributions. For the K d analysis, AUC data were fitted with a discrete model genetic algorithm (DMGA) approach,(29) assuming the known molar mass of the monomer, and floating the K d, koff, total concentration, partial specific volumes, and frictional […]
(§1) Lispro samples (60 µM in 100 mM sodium phosphate, pH 8.0) were centrifuged at 22,000 g for 1 h at 4°C, before 1 µM thioflavin T (ThT) was added. Each lispro (200 µL) was added to a 96 -well, black, clear bottom plate (Greiner Bio -One) and sealed. Samples were shaken continuously at 960 rpm on a Varioskan multimode plate reader at 37°C, and fluorescence readings were recorded every 15 min (444 nm excitation, 485 nm em ission). Fibrillation runs were performed on at least two separate HPLC fractions, each in triplicate or quadruplicate, and on two different days. The growth phase of each fibrillation replicate was fit to a linear function; f ibrillation lag times were reported as the x-intercept of this fit. Fibril samples were stored at 4°C until analysis by transmission electron microscopy (TEM).
Transmission electron microscopy:
Lispro fibrils were briefly centrifuged (5 kg, 1 min), then washed twice and resuspended in ddH 2O.
Fibrils were stained with 2% uranyl acetate on a 300 -mesh formvar/carbon coated copper grid (Electron Microscopy Sciences) and imaged on a Tecnai T12 LaB6 […] transmission electron […]

[2] = Fibrillation (thioflavin T), shaking at 37 °C; type: physicochemical; details: 60 μM in 100 mM sodium phosphate, pH 8.0, 37 °C; for Fibrillation lag time: shaking 960 rpm, 1 μM ThT (444/485 nm), lag time = x-intercept, two HPLC fractions, each in triplicate or quadruplicate, two days; for fibrillation: vigorous shaking, ThT
Protocol: Each insulin lispro variant was subjected to continuous, vigorous shaking at 37 °C to assess its stability against physical denaturation; fibrillation was monitored with the dye thioflavin T, (Fig. 4A).
Figure 4 Fibrillation of lispro variants.A, lispro variants (60 μM in 100 mM phosphate buffer, pH 8.0) were incubated at 37 °C with vigorous shaking; fibril formation was monitored by ThT fluorescence. Fibrillation runs were performed on two separate HPLC fractions, each in triplicate or quadruplicate, on two separate days. B–E, TEM images of lispro (B), KP-4R-F (C), KP-4S-F (D), and KP-44-diF (E) aggregates. F, ANS emission spectra of lispro variants (1 μM lispro variant labeled with 5 μM ANS in 100 mM phosphate buffer, pH 8.0). The data presented here indicate the mean ± SD for each variant from measurements of three separate HPLC fractions. 44-diF, 4,4-difluoroproline; 4R-F, 4R-fluoroproline; 4S-F, 4S-fluoroproline; ThT, thioflavin T.
Lispro samples (60 μM in 100 mM sodium phosphate buffer, pH 8.0) were centrifuged (22,000g, 1 h, 4 °C); 1 μM thioflavin T was then added. Each lispro variant was shaken continuously in a 96-well, black, clear bottom plate at 37 °C, and fluorescence (444 nm excitation, 485 nm emission) was monitored over time. Fibrillation runs were performed on two separate HPLC fractions, each in triplicate or quadruplicate, on two separate days. The growth phase of each replicate was fit to a linear function; lag times were reported as the x-intercept. […]
as §1
Transmission electron microscopy: […]

[3] = target: reversible monomer-dimer equilibrium; details: read-out: Kd (monomer-dimer), previously reported; cited from earlier work
Description: The secondary structure of each insulin lispro variant was probed by circular dichroism spectroscopy. […] All lispro samples were further analyzed by analytical ultracentrifuga ...

Row | Substance | Partial specific volume PSV [1] | Dimer diffusion coefficient D [1] | Dimer frictional ratio [1] | Dimer sedimentation coefficient s [1] | Monomer diffusion coefficient D [1] | Monomer frictional ratio [1] | Monomer sedimentation coefficient s [1] | Fibrillation lag time [2] [h] | fibrillation [2] | pKd [3]
1 | KP-4R-F: insulin lispro with ProB29 replaced by 4R-fluoroproline | 0.69 [0.69, 0.70] ml g-1 | 1.31 [1.08, 1.55] µm2/s | 1.12 [0.90, 1.35] | 1.99 [1.58, 2.39] S | 1.20 [1.14, 1.25] µm2/s | 1.54 [1.47, 1.61] | 0.90 [0.88, 0.93] S | 10.3 ± 2.4 | did not significantly change the fibrillation lag time | 
2 | KP-4S-F: insulin lispro with ProB29 replaced by 4S-fluoroproline | 0.68 [0.67, 0.69] ml g-1 | 1.20 [1.05, 1.35] µm2/s | 1.23 [1.08, 1.37] | 1.87 [1.63, 2.10] S | 1.32 [1.29, 1.36] µm2/s | 1.40 [1.35, 1.44] | 1.03 [1.00, 1.05] S | 17.9 ± 0.8 | stabilized against fibril formation; also recorded: extended lag time to fibril formation | 
3 | KP-44-diF: insulin lispro with ProB29 replaced by 4,4-difluoroproline | 0.67 [0.64, 0.70] ml g-1 | 0.99 [0.84, 1.14] µm2/s | 1.50 [1.40, 1.60] | 1.59 [1.30, 1.88] S | 1.24 [1.16, 1.32] µm2/s | 1.50 [1.40, 1.60] | 1.00 [0.95, 1.04] S | 9.0 ± 1.3 | did not significantly change the fibrillation lag time | 
4 | insulin lispro: fast-acting insulin with inversion of the residues ProB28 and LysB29; Humalog, Eli Lilly [reference compound] | 0.72 [0.70, 0.74] ml g-1 | 1.10 [0.99, 1.21] µm2/s | 1.31 [1.20, 1.43] | 1.48 [1.25, 1.72] S | 1.26 [1.16, 1.35] µm2/s | 1.44 [1.32, 1.57] | 0.85 [0.81, 0.88] S | 10.9 ± 2.2 |  | 2.96
